The values that follow come from patent US20180140737A1, “HAEMOSTATIC MATERIAL” (HAEMOSTATIX LIMITED, priority 2015, published 2018).

Experiment [1] deals with T1, fibrinogen (Homo sapiens, UniProt P02675+P02679).
T1 sequence (P02679 27-453): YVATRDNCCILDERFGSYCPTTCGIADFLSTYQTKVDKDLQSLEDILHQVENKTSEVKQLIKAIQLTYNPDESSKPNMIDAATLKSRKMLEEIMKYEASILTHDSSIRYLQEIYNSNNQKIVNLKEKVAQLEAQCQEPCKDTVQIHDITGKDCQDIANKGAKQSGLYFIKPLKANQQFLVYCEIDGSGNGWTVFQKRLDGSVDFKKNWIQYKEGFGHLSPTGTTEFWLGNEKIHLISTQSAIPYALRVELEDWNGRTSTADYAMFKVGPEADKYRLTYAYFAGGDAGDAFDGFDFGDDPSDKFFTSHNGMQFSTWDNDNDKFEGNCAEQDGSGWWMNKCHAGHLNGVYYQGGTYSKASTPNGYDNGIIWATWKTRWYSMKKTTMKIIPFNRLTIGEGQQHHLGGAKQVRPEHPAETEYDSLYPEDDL
T1 sequence (P02675 31-491): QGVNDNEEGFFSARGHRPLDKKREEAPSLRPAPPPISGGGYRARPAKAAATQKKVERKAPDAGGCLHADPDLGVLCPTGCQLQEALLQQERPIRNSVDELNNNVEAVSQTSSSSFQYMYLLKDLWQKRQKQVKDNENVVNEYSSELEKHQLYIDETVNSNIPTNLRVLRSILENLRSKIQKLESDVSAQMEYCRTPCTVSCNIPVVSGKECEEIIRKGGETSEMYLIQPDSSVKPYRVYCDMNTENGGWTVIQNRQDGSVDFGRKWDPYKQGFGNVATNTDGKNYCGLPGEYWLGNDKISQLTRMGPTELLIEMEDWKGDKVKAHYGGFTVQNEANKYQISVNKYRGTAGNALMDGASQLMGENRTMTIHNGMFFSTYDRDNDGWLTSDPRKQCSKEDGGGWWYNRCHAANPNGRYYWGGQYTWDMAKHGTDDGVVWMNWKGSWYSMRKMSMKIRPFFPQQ
T1 sequence (P02671 20-629 partner limits assumed): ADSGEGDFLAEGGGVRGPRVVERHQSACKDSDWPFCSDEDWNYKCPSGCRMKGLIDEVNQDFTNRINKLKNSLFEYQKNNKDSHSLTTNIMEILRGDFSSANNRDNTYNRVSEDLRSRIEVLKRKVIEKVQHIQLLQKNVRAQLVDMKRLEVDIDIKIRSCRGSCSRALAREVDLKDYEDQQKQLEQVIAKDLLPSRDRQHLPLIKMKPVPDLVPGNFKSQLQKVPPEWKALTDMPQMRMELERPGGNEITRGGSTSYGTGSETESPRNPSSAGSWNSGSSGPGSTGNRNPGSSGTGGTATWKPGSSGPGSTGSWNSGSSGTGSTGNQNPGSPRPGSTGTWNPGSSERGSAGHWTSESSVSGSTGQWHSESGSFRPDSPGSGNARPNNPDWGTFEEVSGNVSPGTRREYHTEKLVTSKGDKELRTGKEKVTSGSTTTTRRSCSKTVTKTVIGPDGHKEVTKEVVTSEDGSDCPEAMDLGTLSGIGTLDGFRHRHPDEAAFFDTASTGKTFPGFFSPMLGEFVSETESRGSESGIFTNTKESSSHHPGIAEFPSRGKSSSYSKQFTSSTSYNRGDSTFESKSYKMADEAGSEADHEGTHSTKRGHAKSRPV
To be noted: cited from earlier work.

Experiment [2] addresses T2, purified human fibrinogen (Homo sapiens, UniProt P02675+P02679).
T2 sequence (P02679 27-453): T1 sequence (P02679 27-453)
T2 sequence (P02675 31-491): T1 sequence (P02675 31-491)
T2 sequence (P02671 20-629 partner limits assumed): T1 sequence (P02671 20-629 partner limits assumed)
The experiment in a line: Co-polymerisation with purified human fibrinogen, clotting time (Sigma Amelung KC4 Delta coagulation analyser). The format is biochemical. The method, then: The ability of Peptide Dendrimer No. 12 to polymerise fibrinogen was assessed. 30 μl of dendrimer in solution, at concentration ranging from 0.005-2 mg/ml, was added to 100 μl purified human fibrinogen at 3 mg/ml (the level of fibrinogen found in the blood). Polymerisation of fibrinogen was analysed using a Sigma Amelung KC4 Delta coagulation analyser.
The ability of Peptide Dendrimer Nos. 4, 5, 10, 11, and 12 to copolymerise with fibrinogen was assessed using the same method described in Example 11. The concentration of each dendrimer was varied from 0.005-0.5 mg/ml.
The ability of the dendrimers to copolymerise with fibrinogen was assessed using the same method described in Example 11, for a concentration of each dendrimer ranging from 0.005-0.5mg/ml.
The ability of the dendrimers to copolymerise with fibrinogen was assessed using the same method described in Example 11, for a concentration of each dendrimer ranging from 0.005-0.5 mg/ml.
Peptide Conjugate No. 1 or 2 (2 mg/ml) was mixed with Peptide Dendrimer No. 3 or 4, and fibrinogen, and the ability of the mixtures to copolymerise with fibrinogen was assessed using the same method described in Example 11, for a concentration of each dendrimer ranging from 0.025-0.5 mg/ml.

Experiment [3] addresses T3, fibrinogen in human plasma (Homo sapiens, UniProt P02675+P02679).
T3 construct: from tissue; host or cells: human plasma
T3 sequence (P02679 27-453): T1 sequence (P02679 27-453)
T3 sequence (P02675 31-491): T1 sequence (P02675 31-491)
T3 sequence (P02671 20-629 partner limits assumed): T1 sequence (P02671 20-629 partner limits assumed)
The experiment in a line: Polymerisation of fibrinogen in human plasma (KC4 Delta coagulation analyzer). The format is biochemical. Particulars: 30 μL dendrimer 0.25 mg/ml added to 100 μL human plasma, 37° C. The procedure: The ability of several different peptide dendrimers (Nos. 4, 5, 8, 9, 10, 11, 12, 13) to polymerise fibrinogen in human plasma was tested.
30 μL of each dendrimer (at a concentration of 0.25 mg/ml) was added to 100 μL human plasma at 37° C., and polymerisation of fibrinogen was determined using a Sigma Amelung KC4 Delta coagulation analyzer.

Experiment [4] concerns the target T1, fibrinogen. The experiment in a line: Clotting activity of dendrimer extracted from gamma-irradiated gelatin paste. It is filed as biochemical. To be noted: paste with SURGIFLO, extract about 0.25 mg/ml, fibrinogen 3 mg/ml, 37° C. The method, then: 2 ml of solution of Peptide Dendrimer No. 12 or 13 was mixed with SURGIFLO Haemostatic Matrix (a hydrated flowable gelatin matrix) to form a paste of each peptide. Each paste was sterilised by irradiation with ^60Co gamma rays at a dose of 30 kGy, and then stored at room temperature. Samples of the sterilised pastes were used for testing after storage for two and four weeks.
After storage, peptide dendrimers were extracted from each paste using 10 mM HEPES buffer. 30 μL of each extract (with a peptide concentration of about 0.25 mg/ml) was added to 100 μL of human fibrinogen at 3 mg/ml, and the ability of each dendrimer to polymerise fibrinogen (the ‘clotting’ activity) at 37° C. was determined using a Sigma Amelung KC4 Delta coagulation analyser. The polymerisation activity of non-irradiated control samples was also determined.

GHRPY: the “binding preference for hole 'a' / hole 'b' of fibrinogen” value in experiment [1] was “binds strongly and preferentially to the ‘b’ hole of fibrinogen”.
For GPRP, the “binding preference for hole 'a' / hole 'b' of fibrinogen” value in experiment [1] was “binds strongly and preferentially to the ‘a’ hole of fibrinogen”.
For the substance GPRPFPA, the “binding preference for hole 'a' / hole 'b' of fibrinogen” value in experiment [1] is “binds with high preference for hole ‘a’ in fibrinogen”.
Regarding GPRPG, the “binding preference for hole 'a' / hole 'b' of fibrinogen” value in experiment [1] is “binds to hole ‘a’ and hole ‘b’ of fibrinogen, but with some preference for hole ‘a’”.
Take “Peptide Dendrimer No. 12 (peptide GPRPG; chain KKKKK)”: the “ability to copolymerise with fibrinogen” value in experiment [2] (dendrimer 0.005-2 mg/ml, fibrinogen 3 mg/ml) was “able to copolymerise with fibrinogen almost instantaneously”. In addition, the clotting result in experiment [2] (dendrimer in the range ~0.02-0.5 mg/ml) is reported as “almost instantaneous clotting”. Moreover, in experiment [3], the “ability to polymerise fibrinogen in human plasma” value is given as “able to polymerise fibrinogen in human plasma” and the clotting time entry is listed as “less than one second”. For the same substance, in experiment [4] (30 kGy gamma, 2 weeks room temperature), the “Clotting activity (seconds), Storage for 2 weeks post irradiation” value worked out at 1 s. The “Clotting activity (seconds), Storage for 4 weeks post irradiation” value in experiment [4] (30 kGy gamma, 4 weeks room temperature) came out at 1 s. For the same substance, in experiment [4] (not irradiated), the “Clotting activity (seconds), Non-irradiated control” value was found to be 1 s.
